B3: Tip20p, full-length (residues 1-701) (natural protein, S. cerevisiae, UniProt P33891 1-701, looked up)
chain: MNGIDDLLNINDRIKQVQNERNELASKLQNLKQSLASNDTEVALSEVIAQDIIEVGASVEGLEQLRAKYGDLQILNKLEKVAVQQTQMQAGVDKLDSFERQLDELAEQPPDQFTLDDVKALHSKLTSVFATVPQINNIDSQYAAYNKLKSKVTGKYNDVIIQRLATNWSNTFDQKLLEAQWDTQKFASTSVGLVKCLRENSTKLYQLSLLYLPLEEETQNGDSERPLSRSNNNQEPVLWNFKSLANNFNVRFTYHFHATSSSSKIETYFQFLNDYLAENLYKCINIFHDDCNGLTKPVIHEQFINYVLQPIRDKVRSTLFQNDLKTLIVLISQILATDKNLLNSFHYHGLGLVSLISDEVWEKWINYEVEMANRQFINITKNPEDFPKSSQNFVKLINKIYDYLEPFYDLDFDLLVRYKLMTCSLIFMNLTSSYLDYILTVDSLNETRTKEQELYQTMAKLQHVNFVYRKIKSLSSNFIFIQLTDIVNSTESKKYNSLFQNVENDYEKAMSTDMQNSIVHRIQKLLKETLRNYFKISTWSTLEMSVDENIGPSSVPSAELVNSINVLRRLINKLDSMDIPLAISLKVKNELLNVIVNYFTESILKLNKFNQNGLNQFLHDFKSLSSILSLPSHATNYKCMSLHELVKILKLKYDPNNQQFLNPEYIKTGNFTSLKEAYSIKYLKDTKIQDALYRIIYGNIL

Experiments:
[1] = target: T1, Sec39p, full-length (residues 1-709) (S. cerevisiae, UniProt Q12745 1-709); assay: SEC
T1 sequence (looked up): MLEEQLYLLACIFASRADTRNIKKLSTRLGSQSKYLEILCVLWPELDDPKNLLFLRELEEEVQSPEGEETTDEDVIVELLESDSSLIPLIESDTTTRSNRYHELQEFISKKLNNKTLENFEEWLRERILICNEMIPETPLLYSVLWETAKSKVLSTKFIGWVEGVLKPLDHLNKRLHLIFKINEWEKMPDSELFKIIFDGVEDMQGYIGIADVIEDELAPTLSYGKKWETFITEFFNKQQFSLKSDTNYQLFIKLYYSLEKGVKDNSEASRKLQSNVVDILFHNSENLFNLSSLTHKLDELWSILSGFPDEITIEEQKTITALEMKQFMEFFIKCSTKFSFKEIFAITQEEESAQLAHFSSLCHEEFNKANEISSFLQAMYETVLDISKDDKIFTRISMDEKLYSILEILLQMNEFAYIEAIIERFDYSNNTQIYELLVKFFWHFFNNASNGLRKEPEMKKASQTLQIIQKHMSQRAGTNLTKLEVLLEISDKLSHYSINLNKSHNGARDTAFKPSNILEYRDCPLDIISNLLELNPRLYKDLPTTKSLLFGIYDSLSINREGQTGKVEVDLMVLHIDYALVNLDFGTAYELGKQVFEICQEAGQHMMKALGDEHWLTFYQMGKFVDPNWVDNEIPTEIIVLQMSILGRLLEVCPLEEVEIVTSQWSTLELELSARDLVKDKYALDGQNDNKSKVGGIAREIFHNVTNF

[2] = target: T2, Dsl1p, full-length (residues 1-754) (S. cerevisiae, UniProt P53847 1-754); assay: SEC
T2 sequence (looked up): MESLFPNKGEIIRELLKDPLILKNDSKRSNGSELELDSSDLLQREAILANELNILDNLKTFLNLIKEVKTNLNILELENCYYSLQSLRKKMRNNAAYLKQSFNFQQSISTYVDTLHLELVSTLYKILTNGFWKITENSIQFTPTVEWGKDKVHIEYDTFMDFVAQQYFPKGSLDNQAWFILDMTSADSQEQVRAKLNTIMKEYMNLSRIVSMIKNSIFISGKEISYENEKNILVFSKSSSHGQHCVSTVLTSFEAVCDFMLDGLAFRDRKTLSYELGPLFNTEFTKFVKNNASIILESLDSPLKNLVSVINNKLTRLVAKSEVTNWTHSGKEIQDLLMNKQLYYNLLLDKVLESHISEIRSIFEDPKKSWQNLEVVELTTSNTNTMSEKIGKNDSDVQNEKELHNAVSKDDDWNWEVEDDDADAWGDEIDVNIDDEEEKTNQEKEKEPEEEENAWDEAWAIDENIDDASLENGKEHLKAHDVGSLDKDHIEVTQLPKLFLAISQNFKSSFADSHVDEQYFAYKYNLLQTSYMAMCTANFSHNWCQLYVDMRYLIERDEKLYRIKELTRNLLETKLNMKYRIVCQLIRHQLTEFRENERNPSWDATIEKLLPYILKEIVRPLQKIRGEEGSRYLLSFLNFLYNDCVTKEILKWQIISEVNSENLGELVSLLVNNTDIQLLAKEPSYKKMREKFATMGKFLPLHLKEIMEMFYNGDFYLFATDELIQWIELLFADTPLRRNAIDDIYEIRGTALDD

Dsl1p-Sec39p complex = target: T3, Dsl1p-Sec39p complex (S. cerevisiae, UniProt P53847 1-754; Q12745 1-709); assay: SEC
T3 sequence (looked up) 1: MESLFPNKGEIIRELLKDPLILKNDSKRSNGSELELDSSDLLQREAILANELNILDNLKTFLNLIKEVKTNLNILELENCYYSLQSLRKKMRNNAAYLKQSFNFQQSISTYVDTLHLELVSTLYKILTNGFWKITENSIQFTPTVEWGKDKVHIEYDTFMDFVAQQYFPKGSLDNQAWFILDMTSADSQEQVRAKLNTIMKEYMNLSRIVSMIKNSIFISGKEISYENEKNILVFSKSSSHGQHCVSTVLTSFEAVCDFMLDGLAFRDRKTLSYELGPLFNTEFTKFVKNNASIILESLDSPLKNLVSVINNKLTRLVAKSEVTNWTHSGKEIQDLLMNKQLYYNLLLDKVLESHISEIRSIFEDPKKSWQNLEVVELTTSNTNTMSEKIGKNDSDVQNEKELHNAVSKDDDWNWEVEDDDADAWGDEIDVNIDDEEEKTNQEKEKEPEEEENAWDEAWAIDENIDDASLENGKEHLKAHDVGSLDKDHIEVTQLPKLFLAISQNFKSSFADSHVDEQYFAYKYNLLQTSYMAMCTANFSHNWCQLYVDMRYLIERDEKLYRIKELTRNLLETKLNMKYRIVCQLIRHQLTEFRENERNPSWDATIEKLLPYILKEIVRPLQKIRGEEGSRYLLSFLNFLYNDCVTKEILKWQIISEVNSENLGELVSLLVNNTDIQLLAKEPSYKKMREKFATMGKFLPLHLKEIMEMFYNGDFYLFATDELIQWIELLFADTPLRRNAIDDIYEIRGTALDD
T3 sequence (looked up) 2: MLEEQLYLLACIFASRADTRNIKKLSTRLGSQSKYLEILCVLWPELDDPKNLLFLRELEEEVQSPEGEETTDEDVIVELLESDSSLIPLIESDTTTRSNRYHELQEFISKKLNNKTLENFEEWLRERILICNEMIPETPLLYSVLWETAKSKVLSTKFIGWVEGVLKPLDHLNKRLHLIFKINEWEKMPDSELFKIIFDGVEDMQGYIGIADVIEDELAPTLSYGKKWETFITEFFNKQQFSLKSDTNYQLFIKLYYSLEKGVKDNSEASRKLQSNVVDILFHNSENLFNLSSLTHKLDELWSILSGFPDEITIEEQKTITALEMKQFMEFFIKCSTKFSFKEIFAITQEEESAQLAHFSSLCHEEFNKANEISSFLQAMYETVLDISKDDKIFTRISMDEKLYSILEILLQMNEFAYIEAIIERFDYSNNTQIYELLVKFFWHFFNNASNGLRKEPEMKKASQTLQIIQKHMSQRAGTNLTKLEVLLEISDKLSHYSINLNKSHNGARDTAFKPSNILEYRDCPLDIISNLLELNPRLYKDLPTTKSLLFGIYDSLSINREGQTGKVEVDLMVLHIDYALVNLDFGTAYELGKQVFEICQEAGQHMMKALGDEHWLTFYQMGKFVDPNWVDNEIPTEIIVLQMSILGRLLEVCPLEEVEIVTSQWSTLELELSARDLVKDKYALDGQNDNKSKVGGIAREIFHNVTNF

[3] = target: T4, Dsl1p residues 37-339, as the C-terminal part of the Tip20p-Dsl1p fusion protein (S. cerevisiae, UniProt P53847 37-339); assay: crystal structure
T4 sequence (looked up): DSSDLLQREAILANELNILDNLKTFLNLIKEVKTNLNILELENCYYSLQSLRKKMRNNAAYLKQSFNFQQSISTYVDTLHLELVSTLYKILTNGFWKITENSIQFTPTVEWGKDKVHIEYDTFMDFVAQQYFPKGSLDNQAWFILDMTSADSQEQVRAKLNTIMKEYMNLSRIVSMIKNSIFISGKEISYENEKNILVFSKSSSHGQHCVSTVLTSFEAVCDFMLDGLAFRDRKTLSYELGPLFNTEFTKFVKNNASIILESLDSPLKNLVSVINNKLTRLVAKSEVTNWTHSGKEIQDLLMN

[4] = target: B3; assay: SEC

B1: Dsl1ΔN (Dsl1p residues 57-754) (domain or fragment, S. cerevisiae, UniProt P53847 57-754, looked up)
chain: NLKTFLNLIKEVKTNLNILELENCYYSLQSLRKKMRNNAAYLKQSFNFQQSISTYVDTLHLELVSTLYKILTNGFWKITENSIQFTPTVEWGKDKVHIEYDTFMDFVAQQYFPKGSLDNQAWFILDMTSADSQEQVRAKLNTIMKEYMNLSRIVSMIKNSIFISGKEISYENEKNILVFSKSSSHGQHCVSTVLTSFEAVCDFMLDGLAFRDRKTLSYELGPLFNTEFTKFVKNNASIILESLDSPLKNLVSVINNKLTRLVAKSEVTNWTHSGKEIQDLLMNKQLYYNLLLDKVLESHISEIRSIFEDPKKSWQNLEVVELTTSNTNTMSEKIGKNDSDVQNEKELHNAVSKDDDWNWEVEDDDADAWGDEIDVNIDDEEEKTNQEKEKEPEEEENAWDEAWAIDENIDDASLENGKEHLKAHDVGSLDKDHIEVTQLPKLFLAISQNFKSSFADSHVDEQYFAYKYNLLQTSYMAMCTANFSHNWCQLYVDMRYLIERDEKLYRIKELTRNLLETKLNMKYRIVCQLIRHQLTEFRENERNPSWDATIEKLLPYILKEIVRPLQKIRGEEGSRYLLSFLNFLYNDCVTKEILKWQIISEVNSENLGELVSLLVNNTDIQLLAKEPSYKKMREKFATMGKFLPLHLKEIMEMFYNGDFYLFATDELIQWIELLFADTPLRRNAIDDIYEIRGTALDD
B1: binds [1].

B2: Dsl1ΔN1 (Dsl1p residues 340-754) (domain or fragment, S. cerevisiae, UniProt P53847 340-754, looked up)
chain: KQLYYNLLLDKVLESHISEIRSIFEDPKKSWQNLEVVELTTSNTNTMSEKIGKNDSDVQNEKELHNAVSKDDDWNWEVEDDDADAWGDEIDVNIDDEEEKTNQEKEKEPEEEENAWDEAWAIDENIDDASLENGKEHLKAHDVGSLDKDHIEVTQLPKLFLAISQNFKSSFADSHVDEQYFAYKYNLLQTSYMAMCTANFSHNWCQLYVDMRYLIERDEKLYRIKELTRNLLETKLNMKYRIVCQLIRHQLTEFRENERNPSWDATIEKLLPYILKEIVRPLQKIRGEEGSRYLLSFLNFLYNDCVTKEILKWQIISEVNSENLGELVSLLVNNTDIQLLAKEPSYKKMREKFATMGKFLPLHLKEIMEMFYNGDFYLFATDELIQWIELLFADTPLRRNAIDDIYEIRGTALDD
B2: binds [1].

B3: binds [2]; binds (Dsl1p-Sec39p complex).

MNGIDDLLNINDRIKQVQNERNELASKLQNLKQSLASNDT (domain or fragment, S. cerevisiae, UniProt P33891 1-40, looked up) [Tip20p residues 1-40, as the N-terminal part of the Tip20p-Dsl1p fusion protein]: binds [3].

B4: Dsl1ΔC (L41E) (domain or fragment, S. cerevisiae, UniProt P53847 1-361, looked up)
chain: MESLFPNKGEIIRELLKDPLILKNDSKRSNGSELELDSSDELQREAILANELNILDNLKTFLNLIKEVKTNLNILELENCYYSLQSLRKKMRNNAAYLKQSFNFQQSISTYVDTLHLELVSTLYKILTNGFWKITENSIQFTPTVEWGKDKVHIEYDTFMDFVAQQYFPKGSLDNQAWFILDMTSADSQEQVRAKLNTIMKEYMNLSRIVSMIKNSIFISGKEISYENEKNILVFSKSSSHGQHCVSTVLTSFEAVCDFMLDGLAFRDRKTLSYELGPLFNTEFTKFVKNNASIILESLDSPLKNLVSVINNKLTRLVAKSEVTNWTHSGKEIQDLLMNKQLYYNLLLDKVLESHISEIRS
B4: binds [4].

From PMC2635920 (Nature structural & molecular biology, 2009)
